Four molecules from patent publication US20050064403A1 can be followed below.

Data set [1] addresses Kunitz trypsin inhibitor from soybeans (soybean) (UniProt P01070). The data set can be described thus: cell-based or functional assay.
Data set [2] addresses T1, Kunitz trypsin inhibitor from soybeans (UniProt P01070).
T1 sequence: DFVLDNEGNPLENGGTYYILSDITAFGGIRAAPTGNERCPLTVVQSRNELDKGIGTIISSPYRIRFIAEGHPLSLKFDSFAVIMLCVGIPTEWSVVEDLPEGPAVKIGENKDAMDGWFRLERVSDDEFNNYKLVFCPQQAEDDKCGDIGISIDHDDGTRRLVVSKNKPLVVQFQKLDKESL

Data set [3] deals with T2, Kunitz trypsin inhibitor from soybeans, P01070.
T2 chain: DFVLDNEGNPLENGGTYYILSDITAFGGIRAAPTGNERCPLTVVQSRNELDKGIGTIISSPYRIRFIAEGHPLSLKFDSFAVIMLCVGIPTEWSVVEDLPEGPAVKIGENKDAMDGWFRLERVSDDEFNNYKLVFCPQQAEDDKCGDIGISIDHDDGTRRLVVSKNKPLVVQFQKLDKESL

On to Albumin (control), for which, in data set [1], the Remaining TI activity (%) was found to be 100%.

Regarding Bromelain, the Remaining TI activity (%) in data set [2] worked out at 30%.

B1: Papain (protein)
chain: IPEYVDWRQKGAVTPVKNQGSCGSCWAFSAVVTIEGIIKIRTGNLNEYSEQELLDCDRRSYGCNGGYPWSALQLVAQYGIHYRNTYPYEGVQRYCRSREKGPYAAKTDGVRQVQPYNEGALLYSIANQPVSVVLEAAGKDFQLYRGGIFVGPCGNKVDHAVAAVGYGPNYILIKNSWGTGWGENGYIRIKRGTGNSYGVCGLYTSSFYPVKN
Turning to B1, the Remaining TI activity (%) in data set [3] is 25%.

B2: cysteine proteinase encoded by Aspergillus niger gene nr 28 (protein)
chain: MSKLSAAISKLSLSTIATTLLLLTPPTTAYFYKYPALFVYKDTNCTDISFSLVYPSLGNCNGGYYDYAGSFQMFNIDAAYTCNGSDSTLMFEMYNSSGSDCGDESDLLFRQPVTEECTVADVESPGPLEMPVWFELGSLLGNCGGMAGTMLFGVGILEGGLETKLYWKCYSSRLNTSVTVHRLSLILSMGCTSVSDSYNELAAAHYYEDL
The molecule B2 registered a Remaining TI activity (%) in data set [3] of 26%.
